Measured values from publication PMC9966811, “Comparison of Glyphosate-Degradation Ability of Aldo-Keto Reductase (AKR4) Proteins in Maize, Soybean and Rice” (International Journal of Molecular Sciences, 2023).

Experiments:
Test in all cases: purified protein
Details in all cases: NADPH 0.1 mM, pH 7.4, 25 °C, 10 mM beta-mercaptoethanol
purified protein [1] = substrate: O=Cc1ccccc1; format: biochemical, Zea mays
purified protein [2] = substrate: O=Cc1ccccc1; format: biochemical, Echinochloa colona
purified protein [3] = substrate: O=Cc1ccccc1; format: biochemical, Oryza sativa

B1: ZmAKR4 (Zea mays) (protein)
chain: MARHFVLNTGAKIPSVGLGTWQSDPGVVGNAVYAAVKAGYRHIDCARVYGNEKEIGLALKKLFEEGVVKREDLFITSKLWNDHHAPEDVPEALNDSLNDLQLEYLDLYLIHWPFRVKKGTNTSPENFVTPDFPATWGAMEKLYDAGKARAIGVSNFSSKKLGDLLAVARVPPAVDQVECHPGWQQTKLHSFCQSTGVHLTAYSPLGSPGTTWMNGNVLKEPIIISIAEKLGKTSAQVALRWNIQMGHSVLPKSTNEERIKQNLDVYDWSIPDDLLAKFSEIKQARLLRGNFIVNPESVYKTHEELWDGEL
notes: full CDS from leaf cDNA in pET32a (vector tag, about 50 kD), E. coli BL21, Ni-NTA
- Km (purified protein [1]): 1060 ± 290 µM
- kcat (purified protein [1]): 0.7522 ± 0.0293 s⁻¹

B2: EcAKR4 (Echinochloa colona) (protein)
chain: MARHFVLNTGAKIPSVGLGTWQSDPGVVGDAVYAAVKAGYRHIDCARVYGNEKEIGLALKKLFEEGVVKREDLFITSKLWNDHHAPEDVPEALNESLKDLQLDYLDLYLIHWPFRVKKGTNTSPENFITPDIPATWGAMEKLYDAGKARAIGVSNFSSKKLGDLLAVARVPPAVDQVECHPGWQQTKLHNFCQSTGVHLSAYSPLGSPGTTWMNGNVLKEPVIISIAEKLGKTPAQVALRWNIQMGHSVLPKSTNEERIKQNLDVYDWSIPDDLLAKFSEIKQARLLRGNFIVNPQSVYKTHEELWDGEL
notes: full CDS from leaf cDNA in pET32a as printed (about 40 kD on gel), E. coli BL21, Ni-NTA
- Km (purified protein [2]): 870 ± 250 µM
- kcat (purified protein [2]): 0.7052 ± 0.0253 s⁻¹

B3: OsAKR4-1 (Oryza sativa Japonica Group) (protein)
chain: MAKHFVLNTGAKIPSVGLGTWQSDPGVVGDAVYAAVKAGYRHIDCARMYKNENEVGIALKKLFEEGVVKREDLFITSKLWCDCHAPEDVPESLDKTLSDLQLEYLDLYLIHWPFRVKKGSGISNTEDYIPPDIPSTWGAMEKLYDSGKSRAIGVSNFSSKKLGDLLAVACVPPAVDQVECHPGWQQTKLHNFCQSTGVHLSAYSPLGSPGSTWMNSNVLKESVIISIAEKLGKTPAQVALHWNIQMGHSVLPKSVTEERIKQNIDVYDWSIPEDLLVKFSEIKQVRLLRGDVIVNPHSVYKTHEELWDGEI
notes: as for B1
- Km (purified protein [3]): 2476 ± 540 µM
- kcat (purified protein [3]): 0.676 ± 0.0363 s⁻¹
